Data published in the nanobody polyreactivity screen of Harvey et al. (2022).

Assay: yeast display, Sf9 membrane polyspecificity reagent, FACS + sequencing; frameworks hold sequencing errors
Outline: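 Galactose induction of a Saccharomyces cerevisiae BJ5465 synthetic nanobody display library ran 36–48 hours. The cells were then stained for 1 hour at 4 °C with 10% biotinylated, detergent-solubilized Sf9 membrane reagent, pulled down on streptavidin microbeads and FACS-sorted into low and high (top ~1%) gates on expression and reagent-binding fluorescence. Labels for polyreactivity follow the gate of origin.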

Row | Sequence | polyreactivity (PSR sort gate)
1 | QVQLVESGGGLVQAGGSLRLSCAASGRIFGHYAMGWYRQAPGKERELVASISSNGGSTYYADSVKGRFTISRDNAKNTVYLQINSLKPEDTAVYYCAARVSTVFKRYYYWGQGTQVTVSS | high polyreactivity
2 | QVQLVESGGGLVQAGGSLRLSCAASGRIFGHYVMGWYRQAPRKERELDAAITRGDSTYYADSVKGRFTISRDNAKNTVYLEMNSLKPEDTAVYYCAARVWRVDARDRYYWGQGTQVTVSS | high polyreactivity
3 | QVQLVESGGGLVQAGGSLRLSCAASGRIFGINAMGWYRQAPGKERELVAAISWRSGSTYYADSVKGRFTISRDNAKNTVYLQMNSLKPEDTAVYYCAAKQDQDYYWGQGTQVTVSS | low polyreactivity
4 | QVQLVESGGGLVQAGGSLRLSCAASGRIFGINVMGWYRQAPGKERELVARITGRGGRTYYADSVKGRFTISRDNAKNTVYLQINSLKPEDTAFYYCAADARYEAYDYWGQGTQVTVSS | high polyreactivity
5 | QVQLVESGGGLVQAGGSLRLSCAASGRIFGIYAMGWYRQAPGKERELVAAISFIGGRTYYADSVKGRFTISRDNAKNTVYLQMNSLKPEDTAVYYCAARTVPSSRREYWGQGTQVTVSS | high polyreactivity
6 | QVQLVESGGGLVQAGGSLRLSCAASGRIFGIYTMGWYRQAPGKERELVAAITQGGGSTYYADSVKGRFTISRDNAKNTVYLQMNSLNPEDTAVYYCAARPKSPSGTRRYYWGQGTQVTVSS | high polyreactivity
7 | QVQLVESGGGLVQAGGSLRLSCAASGRIFGKNAMGWYIQAPRKERDLVAAITSTGGTTYYADSVMGRFTISRDNAKNTVYLQMNSLKPEDSAVYDCAKDGQTNNETQGLKYDYWGQGTQLTVSS | low polyreactivity
8 | QVQLVESGGGLVQAGGSLRLSCAASGRIFGKNVMGLYRKAPGKERELVAAINRSSRTYYADSVKGRFTISRDNAKNTVYLQMNSLKPEDTAVYYCAAHAFPDGDYWGQGTQVTVSS | high polyreactivity
9 | QVQLVESGGGLVQAGGSLRLSCAASGRIFGKYAMGWYRHAPGKERELVAAIRSRGSTTYYADSVKGRFTISRDNAKNTVYLQMNSLKPEDTAVYYCAKDVGGKPWYPYGYWGQGTQVTVSS | high polyreactivity
10 | QVQLVESGGGLVQAGGSLRLSCAASGRIFGKYAMGWYRQAPGKERELVARISFSGGTTYYADSVKGRFTISRDNAKNTVYLQMNSLKQEDTAVYYCNARRVWSQRWAYDSWGQGTQVTVSS | high polyreactivity
11 | QVQLVESGGGLVQAGGSLRLSCAASGRIFGKYAMGWYRQAPRKERELVARISFSGGTTYYADSVKGRFTISRDNAKNTVYLQMKSLKPEDTAVYYGNARRVWSQRWAYDSWGQGTQVTVSS | high polyreactivity
12 | QVQLVESGGGLVQAGGSLRLSCAASGRIFGLNAMGWYRQAPGKERELVAAITGSVGSTYYADSVKGRFTISRDNAKNTVYLQMNSLKPEDTAVYYCYAEYDSRRSSYYRHFNYWGQGTQVTVSS | low polyreactivity
13 | QVQLVESGGGLVQAGGSLRLSCAASGRIFGLNAMGWYRQAPGQERELVAAIDIIGGSTYYADSVKGRFTISRDNAKNTVYLQMNSLKPEDTAVYNCAAEGDFWRFVEYDYWGQGTQVTVSS | low polyreactivity
14 | QVQLVESGGGLVQAGGSLRLSCAASGRIFGLNTMGRYRQAPGKERELVAAITSSAGSTYYADSVKGRCTISRDNAKNTVYLQMNSLKPEDTAVYYSAARVSYLGSFTSQRYYYWGLGTQVTVSS | high polyreactivity
15 | QVQLVESGGGLVQAGGSLRLSCAASGRIFGLYAMGWYRQAPGKEREFVAAIRLSGGSTYYADSVKGRFTISRDNAKNTVYLQMISLKPEDTAVYYCAADLSYNRGRGSRVYYWGQGTQVTVSS | high polyreactivity
16 | QVQLVESGGGLVQAGGSLRLSCAASGRIFGLYAMGWYRQAPGKERELVAAITKRGGTTYYADSVKVRFTISRDNAKNTVYLQMKSLKPEDTAVYYCAAKRSVLRTADYDYWGQGTQVTVSS | high polyreactivity
17 | QVQLVESGGGLVQAGGSLRLSCAASGRIFGMYTKGWYRQETGKETELVAAINTGGSTYYADSVKGRFTISRDNAKNTVYLQMNSLKPEDTAVYYCNAETGWPWIYHYDYWGQGTQVTVSS | low polyreactivity
18 | QVQLVESGGGLVQAGGSLRLSCAASGRIFGNNAMGWYRQAPGKERELVAAIRSRGTRTYYADSVKGRFTISRDNAKNTVYLQMNSLKPEDTAVYYCATTSLTGRYDRYDYWGQGTQVTVSS | high polyreactivity
19 | QVQLVESGGGLVQAGGSLRLSCAASGRIFGNYAMGWYRPATGKESELVAAISGGGSTYYADSVKGRFTISRDNAKNTVYLQMNSVKPEDTAVYYCAARFMWSVFGRKGGYWGQGTHVTVSS | low polyreactivity
20 | QVQLVESGGGLVQAGGSLRLSCAASGRIFGNYAMGWYRQAPGKERELVAAISGGGSTYYADSVKGRFTISRDNAKNTVYLQMNSLKPEDTAVYYCNAKTYYPPFGYWGQGTQVTVSS | low polyreactivity
21 | QVQLVESGGGLVQAGGSLRLSCAASGRIFGPNAMGWYRQAPGKERELVAAITGSGGSTYADSVKGRFTISRDNAKNTVYLQMNSLKREDTAVYYCAKKTWYSYYWGQGTQVTVSS | high polyreactivity
22 | QVQLVESGGGLVQAGGSLRLSCAASGRIFGPYAMGWYRQAPGKDRELVAAISASGGRTYDADSVKGRFTISRDNAKNTVYLQMNSLKPEDTAVYYCARRYWHSGWIFDYWGQGTQVTVSS | high polyreactivity

Row | Sequence | polyreactivity (PSR sort gate)
23 | QVQLVESGGGLVQAGGSLRLSCAASGRIFGPYAMGWYRQAPGKERELVAAITQRGGSTSYADSVKGRFTISRDNAKKTVYLQMNSLKPEDTAVYYCNVLSYGSIPRRGYYYVWGDYWGQGTQVTVSS | high polyreactivity
24 | QVQLVESGGGLVQAGGSLRLSCAASGRIFGPYAMGWYRQAPRKERELVASISYSGGSTYYADSVKGRFTISRDNAKNTVYLQMNSLKPEDTAVYYCAKGGYWRGYNYWGQGTQVTVSS | low polyreactivity
25 | QVQLVESGGGLVQAGGSLRLSCAASGRIFGPYTKGWYRQAPGKERQLVAAISCSGGSTYYADSVKGRFTISRDNAKNTVYLQMNSLKPEDTAVSYCKADHPFPQYEGGSSGQGTQVTVSS | low polyreactivity
26 | QVQLVESGGGLVQAGGSLRLSCAASGRIFGPYTMGWYRQAPGKERELVAAISSTGGSTYYADSVKGRFTISRDNAKNTVYLQRNSLKPEDTAVYYCEYDYWGQGTQVTVSS | low polyreactivity
27 | QVQLVESGGGLVQAGGSLRLSCAASGRIFGPYTMGWYRQAPGKERELVAAITGRVVSTYYADSVKGRFTISRDNAKNTVYLQMNSLKPEDTAVYYCAKASHYWSQRFGYWGQGTQVTVSS | high polyreactivity
28 | QVQLVESGGGLVQAGGSLRLSCAASGRIFGPYVMGWYRQAPGKEREFVAAISRRTGSTYYADSVKGRFTISRDNAKNTVYLQMNSLKPEDTAVYYCAATYYFSHVVGYGYWGQGTQVTVSS | high polyreactivity
29 | QVQLVESGGGLVQAGGSLRLSCAASGRIFGPYVMGWYRQAPGKERELVAAISTSGTSTYYADSVKGRFTISRDNAKNTVYLQMNSLKPEDTAVYYCAKRSGARHRLMDYWGQGTQVTVSS | low polyreactivity
30 | QVQLVESGGGLVQAGGSLRLSCAASGRIFGRNAMGWYRPAPGKERELVAAITSGGSTNYADSVKGRFTISRDNAKNTVYLQMNSLKPEDAAVYYCAARRVIYVRLDYDYWGQGTQVTVSS | high polyreactivity
31 | QVQLVESGGGLVQAGGSLRLSCAASGRIFGRNAMGWYRQAPGKEREFVAAISRSGASTYYADSVKGRFTISRDNAKNTVYLQMNSLKPEDTAVYYCARTTRQSSAYTYSDEYDYWGQGTQVTVSS | high polyreactivity
32 | QVQLVESGGGLVQAGGSLRLSCAASGRIFGRNTMGWYRQAPGKERELVAAITGTGTTYADSVKGRFTISRDNAKNTVYLQMNSLKPEDTAVYYCAARRSVYTWVSRYNYWGQGTQVTVSS | high polyreactivity
33 | QVQLVESGGGLVQAGGSLRLSCAASGRIFGRNVMGWYRQAPGKERELVAAISWIGGSTSYADSVKGRFTISRDNAKNTVYLQMNSLKPEDTAVYYCAAKPYGYRHYWGYDYWGQGTQVTVSS | high polyreactivity
34 | QVQLVESGGGLVQAGGSLRLSCAASGRIFGRYAMGWYRQAPGKERELVAAITSGGRTSYADSVKGRFTISRDNAKNTVYLQMNSLKPEDTAVYYWNVVSRNSIRFDYWGQGTQVTVSS | high polyreactivity
35 | QVQLVESGGGLVQAGGSLRLSCAASGRIFGRYAMGWYRQAPGKERELVAAITSSGGSTYYADSVKGRFTISRDNAKNTVYLQMNSLKPEDTAVYYCAADSQYKYDYWGQGTQVTVSS | high polyreactivity
36 | QVQLVESGGGLVQAGGSLRLSCAASGRIFGRYAMGWYRQAPGKERELVAVISSGGSTYYADSVKGRFTISRDNAKNTVYLQMNSLKPEDTAVYYCAAVNRGGYDYWGQGTQVTVSS | low polyreactivity
37 | QVQLVESGGGLVQAGGSLRLSCAASGRIFGRYAMGWYRQAPGKERELVAVISSGGSTYYADSVKGRFTISRDNAKNTVYLQMNSLKREDTAVYYCAAVNRGGYDYWGQGTQVTVSS | low polyreactivity
38 | QVQLVESGGGLVQAGGSLRLSCAASGRIFGRYAMGWYRQAPGKEWELVAAISNGGTTTYADSVKGRFTLSRDNAKNTVYLQMNSLKPEDTAVYYCADDWSYKIYVIQRWYGVDYWGQGTQVTVSS | low polyreactivity
39 | QVQLVESGGGLVQAGGSLRLSCAASGRIFGRYTMGWYRQAPGKERELVAAISARGGSTYYADSVKGRFTISRDNAKNTVYLQMNSLKPEDTAVYYCNTVRVHGFPIDRIYDYWGQGTQVTVSS | high polyreactivity
40 | QVQLVESGGGLVQAGGSLRLSCAASGRIFGSYAMGWYRQAPGKERELVAAISWRGTSTYYADSVKGRFTISRDNAKNTVYLQMNSLKPEDTAVYYCAARGLWPYDYWGQGTQVTVSS | low polyreactivity
41 | QVQLVESGGGLVQAGGSLRLSCAASGRIFGSYAMGWYRQAPGKERELVAAITRSGGSTYYADSVKGRFTISRDNAKNTVYLQMNSLKPEDTAVYYCAAYFRFSGSAKFGYWGQGTQVTVSS | high polyreactivity
42 | QVQLVESGGGLVQAGGSLRLSCAASGRIFGSYVMGWYRQAPGKERELVAAISIGGITKYADSVKGRFTISRDNAKNTVYLQMNSLKPEDTAVYYCAARLVRRYDYDYWGQGTQVTVSS | high polyreactivity
43 | QVQLVESGGGLVQAGGSLRLSCAASGRIFGSYVMGWYRQAPGKERELVAAITDGGTTFYADSVKGRFTISRDNAKNTVYLPMNSLKPEDTAVYYCAARQAGYSGRKLYYWGQGTQVTVSS | low polyreactivity
